Experimental data as given in the supplement of paper PMC10567573.

B1: ADD1 (parent)
chain: LRHSFQKQQREKTRWLNSGRGDEA

Variants of: B1
Assay: protein stability index of a GFP-peptide fusion (GPS, HEK-293T) (PSI 1-6); higher = more stable
Settings: c terminus: a fixed tail appended
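Also: lentivirally expressed fusions sorted by FACS into six bins by GFP to DsRed ratio, PSI derived from sequencing read proportions per bin multiplied by bin number.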

Row | Variant | protein stability index
1 | LRCSFQKQQREKTRWLNSGRGDEA [H3C] | 2.31
2 | LRPSFQKQQREKTRWLNSGRGDEA [H3P] | 3.77
3 | LRTSFQKQQREKTRWLNSGRGDEA [H3T] | 3.94
4 | LRYSFQKQQREKTRWLNSGRGDEA [H3Y] | 3.48
5 | LRGSFQKQQREKTRWLNSGRGDEA [H3G] | 3.93
6 | LRESFQKQQREKTRWLNSGRGDEA [H3E] | 3.98
7 | LRRSFQKQQREKTRWLNSGRGDEA [H3R] | 3.61
8 | LRFSFQKQQREKTRWLNSGRGDEA [H3F] | 3.14
9 | LRKSFQKQQREKTRWLNSGRGDEA [H3K] | 3.75
10 | LRISFQKQQREKTRWLNSGRGDEA [H3I] | 3.16
11 | LRNSFQKQQREKTRWLNSGRGDEA [H3N] | 3.65
12 | LRQSFQKQQREKTRWLNSGRGDEA [H3Q] | 3.67
13 | LRVSFQKQQREKTRWLNSGRGDEA [H3V] | 3.32
14 | LRMSFQKQQREKTRWLNSGRGDEA [H3M] | 3.29
15 | LRLSFQKQQREKTRWLNSGRGDEA [H3L] | 3.54
16 | LRSSFQKQQREKTRWLNSGRGDEA [H3S] | 4.03
17 | LRWSFQKQQREKTRWLNSGRGDEA [H3W] | 2.28
18 | LRASFQKQQREKTRWLNSGRGDEA [H3A] | 3.67
19 | LRDSFQKQQREKTRWLNSGRGDEA [H3D] | 4.53
20 | LRHSAQKQQREKTRWLNSGRGDEA [F5A] | 4.44
21 | LRHSGQKQQREKTRWLNSGRGDEA [F5G] | 4.16
22 | LRHSSQKQQREKTRWLNSGRGDEA [F5S] | 4.17
23 | LRHSWQKQQREKTRWLNSGRGDEA [F5W] | 3.44
24 | LRHSNQKQQREKTRWLNSGRGDEA [F5N] | 4.37

Row | Variant | protein stability index
25 | LRHSIQKQQREKTRWLNSGRGDEA [F5I] | 3.74
26 | LRHSRQKQQREKTRWLNSGRGDEA [F5R] | 3.43
27 | LRHSLQKQQREKTRWLNSGRGDEA [F5L] | 3.83
28 | LRHSVQKQQREKTRWLNSGRGDEA [F5V] | 4.17
29 | LRHSCQKQQREKTRWLNSGRGDEA [F5C] | 2.21
30 | LRHSEQKQQREKTRWLNSGRGDEA [F5E] | 4.71
31 | LRHSKQKQQREKTRWLNSGRGDEA [F5K] | 3.7
32 | LRHSDQKQQREKTRWLNSGRGDEA [F5D] | 4.37
33 | LRHSYQKQQREKTRWLNSGRGDEA [F5Y] | 3.71
34 | LRHSHQKQQREKTRWLNSGRGDEA [F5H] | 4.24
35 | LRHSQQKQQREKTRWLNSGRGDEA [F5Q] | 4.19
36 | LRHSPQKQQREKTRWLNSGRGDEA [F5P] | 4.4
37 | LRHSTQKQQREKTRWLNSGRGDEA [F5T] | 4.11
38 | LRHSMQKQQREKTRWLNSGRGDEA [F5M] | 3.8
39 | RRHSFQKQQREKTRWLNSGRGDEA [L1R] | 4.42
40 | WRHSFQKQQREKTRWLNSGRGDEA [L1W] | 2.92
41 | ARHSFQKQQREKTRWLNSGRGDEA [L1A] | 4.57
42 | CRHSFQKQQREKTRWLNSGRGDEA [L1C] | 3.23
43 | KRHSFQKQQREKTRWLNSGRGDEA [L1K] | 3.62
44 | NRHSFQKQQREKTRWLNSGRGDEA [L1N] | 4.11
45 | YRHSFQKQQREKTRWLNSGRGDEA [L1Y] | 3.75
46 | ERHSFQKQQREKTRWLNSGRGDEA [L1E] | 4.34
47 | PRHSFQKQQREKTRWLNSGRGDEA [L1P] | 4.04
48 | TRHSFQKQQREKTRWLNSGRGDEA [L1T] | 4.32

Row | Variant | protein stability index
49 | IRHSFQKQQREKTRWLNSGRGDEA [L1I] | 3.92
50 | MRHSFQKQQREKTRWLNSGRGDEA [L1M] | 3.65
51 | DRHSFQKQQREKTRWLNSGRGDEA [L1D] | 3.7
52 | FRHSFQKQQREKTRWLNSGRGDEA [L1F] | 3.8
53 | HRHSFQKQQREKTRWLNSGRGDEA [L1H] | 3.92
54 | SRHSFQKQQREKTRWLNSGRGDEA [L1S] | 4.35
55 | QRHSFQKQQREKTRWLNSGRGDEA [L1Q] | 3.78
56 | VRHSFQKQQREKTRWLNSGRGDEA [L1V] | 3.71
57 | GRHSFQKQQREKTRWLNSGRGDEA [L1G] | 4.21
58 | LRHAFQKQQREKTRWLNSGRGDEA [S4A] | 3.59
59 | LRHCFQKQQREKTRWLNSGRGDEA [S4C] | 3.01
60 | LRHHFQKQQREKTRWLNSGRGDEA [S4H] | 2.74
61 | LRHMFQKQQREKTRWLNSGRGDEA [S4M] | 2.84
62 | LRHLFQKQQREKTRWLNSGRGDEA [S4L] | 2.26
63 | LRHVFQKQQREKTRWLNSGRGDEA [S4V] | 3.15
64 | LRHPFQKQQREKTRWLNSGRGDEA [S4P] | 3.3
65 | LRHDFQKQQREKTRWLNSGRGDEA [S4D] | 3.88
66 | LRHNFQKQQREKTRWLNSGRGDEA [S4N] | 4.03
67 | LRHQFQKQQREKTRWLNSGRGDEA [S4Q] | 3.72
68 | LRHEFQKQQREKTRWLNSGRGDEA [S4E] | 3.86
69 | LRHKFQKQQREKTRWLNSGRGDEA [S4K] | 3
70 | LRHIFQKQQREKTRWLNSGRGDEA [S4I] | 2.82
71 | LRHFFQKQQREKTRWLNSGRGDEA [S4F] | 2.92
72 | LRHGFQKQQREKTRWLNSGRGDEA [S4G] | 3.45

Row | Variant | protein stability index
73 | LRHYFQKQQREKTRWLNSGRGDEA [S4Y] | 2.45
74 | LRHRFQKQQREKTRWLNSGRGDEA [S4R] | 3.21
75 | LRHTFQKQQREKTRWLNSGRGDEA [S4T] | 3.57
76 | LRHWFQKQQREKTRWLNSGRGDEA [S4W] | 3.04
77 | LHHSFQKQQREKTRWLNSGRGDEA [R2H] | 4.03
78 | LWHSFQKQQREKTRWLNSGRGDEA [R2W] | 2.92
79 | LPHSFQKQQREKTRWLNSGRGDEA [R2P] | 4.33
80 | LYHSFQKQQREKTRWLNSGRGDEA [R2Y] | 3.26
81 | LTHSFQKQQREKTRWLNSGRGDEA [R2T] | 4.05
82 | LGHSFQKQQREKTRWLNSGRGDEA [R2G] | 3.97
83 | LSHSFQKQQREKTRWLNSGRGDEA [R2S] | 3.6
84 | LFHSFQKQQREKTRWLNSGRGDEA [R2F] | 2.99
85 | LEHSFQKQQREKTRWLNSGRGDEA [R2E] | 4.42
86 | LIHSFQKQQREKTRWLNSGRGDEA [R2I] | 3.06
87 | LVHSFQKQQREKTRWLNSGRGDEA [R2V] | 3.11
88 | LAHSFQKQQREKTRWLNSGRGDEA [R2A] | 4.17
89 | LCHSFQKQQREKTRWLNSGRGDEA [R2C] | 3.58
90 | LNHSFQKQQREKTRWLNSGRGDEA [R2N] | 4.3
91 | LKHSFQKQQREKTRWLNSGRGDEA [R2K] | 3.71
92 | LLHSFQKQQREKTRWLNSGRGDEA [R2L] | 3
93 | LMHSFQKQQREKTRWLNSGRGDEA [R2M] | 3.85
94 | LQHSFQKQQREKTRWLNSGRGDEA [R2Q] | 3.94
